Results on four substances are retold here after doi:10.1101/2022.11.10.516045.

For test [1], the target named is homotrimeric mini-procollagen II (human). Kind of test: SDS-PAGE in non-reducing against reducing.
Test [2] concerns the target human PCPE-1 (procollagen C-proteinase enhancer protein-1), no tag (human) (UniProt Q15113). As to the kind of experiment: SPR. Background: SPR reads the build-up and loss of mass on a sensor chip optically.
The target of test [3] is mini-procollagen III (human). As to the kind of experiment: SDS-PAGE in non-reducing against reducing.
Test [4] concerns the target α2 chain of mini-procollagen I (human). Kind of test: co-purification by the tag of one chain, SDS-PAGE of the BMP-1 cleavage products.

A value given as a limit tells only on which side of the number the result lay.

The term stoichiometry N denotes a count of units in the complex or per binding partner.

Chain of UniProt Q15113 (Q15113 26-449): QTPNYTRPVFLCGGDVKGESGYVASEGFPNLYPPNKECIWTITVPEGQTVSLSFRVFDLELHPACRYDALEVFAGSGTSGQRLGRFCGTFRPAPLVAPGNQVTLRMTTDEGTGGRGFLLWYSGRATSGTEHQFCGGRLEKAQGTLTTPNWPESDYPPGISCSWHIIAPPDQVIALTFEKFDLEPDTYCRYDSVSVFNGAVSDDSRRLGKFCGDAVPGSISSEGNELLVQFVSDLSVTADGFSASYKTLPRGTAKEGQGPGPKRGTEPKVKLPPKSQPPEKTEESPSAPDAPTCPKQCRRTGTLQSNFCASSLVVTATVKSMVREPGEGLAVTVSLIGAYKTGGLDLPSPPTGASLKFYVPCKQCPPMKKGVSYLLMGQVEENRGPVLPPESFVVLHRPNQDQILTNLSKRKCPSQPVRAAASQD

For the substance “homotrimeric mini-procollagen II (domain or fragment)”, the stoichiometry N in test [1] was 3. In test [2], the KD1 (heterogeneous ligand model) was less than 15 nM and the KD2 (heterogeneous ligand model) is less than 15 nM.
As to “heterotrimeric mini-procollagen I (complex)”, in test [2], the KD1 (heterogeneous ligand model) is less than 15 nM and the KD2 (heterogeneous ligand model) was less than 15 nM.
With “mini-procollagen III (domain or fragment)”, the stoichiometry N in test [3] came out at 3. Moreover, in test [2], the KD1 (heterogeneous ligand model) was less than 15 nM and the KD2 (heterogeneous ligand model) was less than 15 nM.
In test [4], “α1 chain of mini-procollagen I (domain or fragment)” came in with a stoichiometry N (α1 chains for one α2 chain) of 2.
